Results published in patent publication US12077763B2, “RNA-based control of powdery mildew” (Greenlight Biosciences, Inc., priority 2021, dated 2024).

B1: GS1853: dsRNA trigger SEQ ID NO 204; gene target Uncharacterized WD repeat-containing protein C17D11.16 (nucleic acid)
chain: CGGACTTCTTGGTCAGGCGCAAAAGAAGTTGAAAATACCTTTCCAACTTCCAAATCTCTGGACACTATCATTGAGGGGCCCGATGGCTGAATATTCCACAGTTTTACGAGTTTATCAGAAGACCCTGTGGCCATAAACCCGGGAATGATAGGATTAATATCAAAAGCACAAACTGATTTGTCATGTGCTTGCAATAACCAAACTGGCTTACTAGAACTGGGAGTAGATGGTGCCATTCGTATATCGTGATAATGGACCATACCACCTTCTGTCGTTACGTAAAAGAAATTTGGGTTGTGTGCATCCCATTTGACAGCTTCTACATCACTTTCTACACCCCAAATCGGCACTTTGGATTCTGGTGCTCTCATGTCGGCCGCTACGACACTCCGATCATAACTTCCACTAAGTAAGACAGTGGAGTCAACAGGATGCCATTGTATTGAGCAAACTTTATCTGAATGATTACTATATGATTTAGCACATTTATTAGTATTAAGGTCCCATAGTTTGACAGTCTTGTCGGCGGAAGAAGAGGCAAGTAAATTTTGGTGTT
B2: GS1862: dsRNA trigger SEQ ID NO 149; gene target ATP-dependent RNA helicase dbp10 (nucleic acid)
chain: CTGCCTGGAATTTGACAACGCATGTAGGATTTCATTAAGTTGAGTGCTAAATCCCATTTCGAAAAGTCGATCTGCTTCATCAAATACCACATACTTGACCGAGGAAAGGTCTAATGACATTTCAATCTTAAGGTGTAAGAAGCGACCTGGCGTTGCAATAATAATATCAGGGTTGGCTGCCATAAATCTGAATTGATCTTCAAGACTATCTCCCCCTACAAGAAGAACGCATTTGAGATCAGTGCTCCGAGAAAATTCCTTAACGACTTTCAAAGTCTGCAAGGCAAGCTCTCGAGATGGGGATAGAATCAGAGCTCTAGCACCAACTCGAGCACTATGCGCCTTCAACATTTGAATCATCGGAATAACAAAAGCCGCTGTCTTTCCTGAACCGGTTCTAGCCATTCCCACGACATCTTGATGATCAAGAATCAGAGGTATTGTTTTTCTCTGGATTGGAGTCGGAACATTGAAGCCTTTTCTTTTGATGGCTCTCAAAAGATGAGCATCCAAACCCATAGATTGAAAA
B3: GS1859: dsRNA trigger SEQ ID NO 207; gene target Citrate/oxoglutarate carrier protein (nucleic acid)
chain: AGGATCTTCTTTTGCTCTGCATTTCAACTCGAATAACCTCAATTGGTTGATTCCACGCACTCAACCCTCCCCCAAGGGCACTAGCGAGAATTCGTTCCCAAGCACTTAATGGACCGCCATTTTCTTTTCCTGAAACCTTTCGGATTCCCTGTTCTGCCAAACGACTTAATCCAAATCTGGATCCCCAATTCGTCATTTGTCGAATGGCAACAGCATTCACACCTTTATTAATACCTCTGATCCCATCTTTACGGTATATATCCATAAATGTTGAGAAAGTTCCTGGGGGCTTTACACCAGTGGATGCTAATTTGGATTTCGTAATCTCCACAGTTTTCATGCATGTACAAAAGCCCATAGTGGCATATGCTTGAGCCATACCCCCGACAACGCCTCCTGTGATGCCGGCTGTGAAGATGCCGGCTCCAAAACTTCGAGCATAGAATTCTGCTTCTGAAGCGACAAATAGAAGAACTGCACCTTTTGATGAAGCTTCAATCCAAGCCCATGGGATCAAGCCCTGATAAAAACCCAAAACA
B4: GS1855: dsRNA trigger SEQ ID NO 212; gene target Golgi apyrase (nucleic acid)
chain: TAACACCCGCAGTTGCCATCAGAAAGAAGGGAGTATCTTTAACTTGATTCTCAGGTACAATACTCAATGCATGATCTAGTAAGCTTTGAAGATGTTCAGGACCAATATCTGTTATGCGATCGGCAAAGGAAGAGACGCCGGGTTTGATTTTTTTTGAATATCCAGGTTTAGTGTGTAACTGAGGTAGTTGGTTCAATTGAATCTCATTTTTTGCATCGTAACGAGCTCGAGATGTATTGAGCCACCGGTAGACGTGGACTCGAGTCCCTGACGAGCCCGCGTCTAAGATAACCCCCCATCGCCATTTACCCATAAGTAGCCTATCGTTACGGTTTGGCGATGCCGGTCTAGGATATGTGCTTCAATATCAAAAATAATCCGTGAAGCGTTACAAAAACATGAGTCAATTATACGGAATTTGAAACGAGTGTGAAAGGAAGTCGGCAGACTCAAAAATAAAAAAGAAAGATAATAATTCGAATTTGAATGAGAATGAGTAGTGGTCGGATAAGATGTTTAATGCTAAGTGCTAAGATAACTGACTAAGACTTGAT
B5: GS1857: dsRNA trigger SEQ ID NO 129; gene target Transcriptional adapter 2 (nucleic acid)
chain: CTTGCTTGAAATTCTTCTCGTGGAATTTCTTCAAGAAGCTGAGTATCCTTGAGACTAGCTCTAACAGGTAGGGGAAACTTTGGACTATCCAGATAAACTTTCTGATAATGCGCCTTAACTTCGTCCTTGTCTCGATAACCTCCAATATGGTCTGCTATATCTGCCCATGATCCAAAGCCATATATTTCGGCTCCCTCCAAAAGAAGTAATTCTTCATCAGCACCCCAGTTTCTGTCATATATGGGAACTGAATTTTGCTCTATTACTCGGTATGGATGGGTTCCTGGGTTGTGGTTGTGTGAAGCTTCGCCATTTGAGAAGCATAGCACACAAAGATCATAATCATGACAGTGAGGGTCAGCACACCTAATTCGAACTGTCGAGGTAATGTCTGCTGAGCATACATCGCATACATACTTAACACCTCCCTCGGCACCTCGGGTCGCAGTCTTCTTCCTGATTTGGCCCATTGCTAAAACTCATGGTCAGTACTAGCAACAGAGCTCCCCTTGGTAGCACGAAGTTAAAACTGCAAATCCTTAAAATTTT
B6: GS1856: dsRNA trigger SEQ ID NO 214; gene target Zinc finger and SCAN domain-containing protein 20 (nucleic acid)
chain: GACCATTGTGGTCTTTCGACAAAATGATTTCAAACAGCCCTCGTGTGCACATTTGTATGGTCTTTTTCCTGTATGAATACGACGATGACGAGCCAGACTAGATGAATCAGAGAATCGTTTCCCACAACCAAGATGCTGGCATTGATGTGGCTTTTCGCCAGTGTGTGTTCGAATGTGCACAGTTAAGGCACTTCTTTGAATGAAACTTTTTCCACATCCAGGCTGCATGCATGAATATGGCCGTTCGTTGGTATGTATTCGATAGTGGCGTTGAAGGTCAGACTTCCTGTTGAAACTCTTGTGACATGTCTGCCAATCACACTGAAATGGTCTCGCATTAGGTTCGTTTTCAACGAGCTCCATTACATCCATAGTGAACCGACAAGTAGTGTCGAATGTATGCAATGTCGGAGAAGTTAAGGGTTGGACAAGAGGTACCGCAGCAAAAGCTGCAGGTGTGGTGATTAGGTGGGGATGGGTGTCGAATATATAAGATTGCGATTCTCTATTTAAAGAAAAAAGAAATATAAGCAAAATAAAATATTTCTTTTGA

Test system: E. necator
Assay: Leaf disc assay, dry inoculum (settling tower), decrease in disease severity / hyphal growth (Example 2)
Details: decrease in disease severity (hyphal growth) relative to untreated control, value ± SE; for % decrease =/− SE TP1: time point 1 (untreated control hyphal growth ≥50%); for % decrease =/− SE TP2: time point 2

Molecule	% decrease =/− SE TP1	% decrease =/− SE TP2
B1	14 ± 6%	0 ± 5%
B2	26 ± 4%	29 ± 5%
B3	32 ± 5%	26 ± 7%
B4	26 ± 4%	10 ± 6%
B5	28 ± 5%	14 ± 7%
B6	1 ± 7%	6 ± 8%
